Data reported in US6869925 (Amgen, dated 2005).
pKd: −log10 of the molar value.

Legend:
[1] = target: SLPI binding sites on U937 cells (human monocyte cell line; intact cells, PMA-induced cells or plasma membranes) (human); test: 125I-SLPI saturation binding, intact U937 cells, *SLPI at 40 pM
[2] = target: SLPI binding sites on U937 cells (human monocyte cell line; intact cells, PMA-induced cells or plasma membranes) (human); test: 125I-SLPI saturation binding, intact U937 cells, *SLPI at 1280 pM
[3] = target: SLPI binding sites on U937 cells (human monocyte cell line; intact cells, PMA-induced cells or plasma membranes) (human); test: 125I-SLPI saturation binding, intact U937 cells, *SLPI at 5120 pM
[4] = target: SLPI binding sites on U937 cells (human monocyte cell line; intact cells, PMA-induced cells or plasma membranes) (human); test: competition with 125I-SLPI, intact U937 cells, cold SLPI at 84 nM
[5] = target: SLPI binding sites on HuT78 cells (human T cell line) (human); test: 125I-SLPI saturation binding, intact HuT78 cells, *SLPI at 1280 pM
[6] = target: SLPI binding sites on U937 cells (human monocyte cell line; intact cells, PMA-induced cells or plasma membranes) (human); test: 125I-SLPI saturation binding, U937 cells plus PMA, *SLPI at 320 pM
[7] = target: SLPI binding sites on U937 cells (human monocyte cell line; intact cells, PMA-induced cells or plasma membranes) (human); test: 125I-SLPI saturation binding, U937 cells plus PMA, *SLPI at 640 pM
[8] = target: SLPI binding sites on HuT78 cells (human T cell line) (human); test: competition with 125I-SLPI, intact HuT78 cells, cold SLPI at 84 nM
[9] = target: SLPI binding sites on U937 cells (human monocyte cell line; intact cells, PMA-induced cells or plasma membranes) (human); test: competition with 125I-SLPI, intact U937 cells, cold SLPI at 8.2 nM
[10] = target: SLPI binding sites on U937 cells (human monocyte cell line; intact cells, PMA-induced cells or plasma membranes) (human); test: competition with 125I-SLPI, intact U937 cells, cold SLPI at 860 nM
[11] = target: SLPI binding sites on HuT78 cells (human T cell line) (human); test: competition with 125I-SLPI, intact HuT78 cells, competitor at 0 nM
[12] = target: SLPI binding sites on U937 cells (human monocyte cell line; intact cells, PMA-induced cells or plasma membranes) (human); test: 125I-SLPI saturation binding, intact U937 cells, *SLPI at 20,480 pM
[13] = target: SLPI binding sites on U937 cells (human monocyte cell line; intact cells, PMA-induced cells or plasma membranes) (human); test: 125I-SLPI saturation binding, U937 cells minus PMA, *SLPI at 640 pM
[14] = target: SLPI binding sites on U937 cells (human monocyte cell line; intact cells, PMA-induced cells or plasma membranes) (human); test: competition with 125I-SLPI, intact U937 cells, cold SLPI at 0.00 nM
[15] = target: SLPI binding sites on U937 cells (human monocyte cell line; intact cells, PMA-induced cells or plasma membranes) (human); test: competition with 125I-SLPI, intact U937 cells, competitor at 2.6 nM
[16] = target: SLPI binding sites on HuT78 cells (human T cell line) (human); test: Scatchard plot of 125I-SLPI saturation binding, intact HuT78 cells
[17] = target: SLPI binding sites on HuT78 cells (human T cell line) (human); test: competition with 125I-SLPI, intact HuT78 cells, cold SLPI at 0.00 nM
[18] = target: SLPI binding sites on U937 cells (human monocyte cell line; intact cells, PMA-induced cells or plasma membranes) (human); test: competition with 125I-SLPI, intact U937 cells, competitor at 0.25 nM
[19] = target: SLPI binding sites on U937 cells (human monocyte cell line; intact cells, PMA-induced cells or plasma membranes) (human); test: 125I-SLPI saturation binding, U937 cells plus PMA, *SLPI at 10,240 pM
[20] = target: SLPI binding sites on HuT78 cells (human T cell line) (human); test: competition with 125I-SLPI, intact HuT78 cells, cold SLPI at 0.024 nM
[21] = target: SLPI binding sites on U937 cells (human monocyte cell line; intact cells, PMA-induced cells or plasma membranes) (human); test: competition with 125I-SLPI, intact U937 cells, competitor at 0.078 nM
[22] = target: SLPI binding sites on U937 cells (human monocyte cell line; intact cells, PMA-induced cells or plasma membranes) (human); test: competition with 125I-SLPI, U937 plasma membranes, competitor at 0 nM
[23] = target: SLPI binding sites on U937 cells (human monocyte cell line; intact cells, PMA-induced cells or plasma membranes) (human); test: 125I-SLPI saturation binding, U937 cells minus PMA, *SLPI at 20,480 pM
[24] = target: SLPI binding sites on U937 cells (human monocyte cell line; intact cells, PMA-induced cells or plasma membranes) (human); test: Scatchard plot of 125I-SLPI saturation binding, PMA-induced U937 cells
[25] = target: SLPI binding sites on U937 cells (human monocyte cell line; intact cells, PMA-induced cells or plasma membranes) (human); test: competition with 125I-SLPI, U937 plasma membranes, competitor at 8.20 nM

serine leukocyte protease inhibitor (SLPI), sequence (P03973 26-132): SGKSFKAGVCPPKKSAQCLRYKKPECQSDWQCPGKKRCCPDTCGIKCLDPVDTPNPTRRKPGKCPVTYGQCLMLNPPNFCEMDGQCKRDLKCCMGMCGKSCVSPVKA

serine leukocyte protease inhibitor (SLPI) (from UniProt P03973 26-132)
bound *SLPI (pM) [1]: 9.5 pM
bound per free [1]: 0.311
sites bound per cell (sites per cell) [1]: 572
specific cpm [1]: 380 cpm
bound *SLPI (pM) [2]: 217 pM
bound per free [2]: 0.204
sites bound per cell (sites per cell) [2]: 13100
specific cpm [2]: 8650 cpm
bound *SLPI (pM) [3]: 379 pM
bound per free [3]: 0.08
sites bound per cell (sites per cell) [3]: 22800
specific cpm [3]: 15100 cpm
% *SLPI BOUND [4]: 3.5%
bound pM [5]: 7.6 pM
bound per free [5]: 0.0059
sites bound per cell (sites per cell) [5]: 458
specific cpm [5]: 303 cpm
bound pM [6]: 65 pM
bound per free [6]: 0.255
sites bound per cell (sites per cell) [6]: 3920
specific cpm [6]: 698 cpm
bound pM [7]: 103 pM
bound per free [7]: 0.192
sites bound per cell (sites per cell) [7]: 6200
specific cpm [7]: 1100 cpm
% *SLPI BOUND [8]: 9.3%
% *SLPI BOUND [9]: 24%
% *SLPI BOUND [10]: 0%
% *SLPI BOUND [11]: 100%
bound *SLPI (pM) [12]: 471 pM
bound per free [12]: 0.024
sites bound per cell (sites per cell) [12]: 28400
specific cpm [12]: 18800 cpm
bound *SLPI (pM) [13]: 207 pM
bound per free [13]: 0.478
sites bound per cell (sites per cell) [13]: 12500
specific cpm [13]: 2210 cpm
% *SLPI BOUND [14]: 94%
% *SLPI BOUND [15]: 46%
pKd [16]: 8.70
% *SLPI BOUND [17]: 100%
% *SLPI BOUND [18]: 106%
bound pM [19]: 274 pM
bound per free [19]: 0.028
sites bound per cell (sites per cell) [19]: 16500
specific cpm [19]: 2930 cpm
% *SLPI BOUND [20]: 88%
% *SLPI BOUND [21]: 111%
CPM *SLPI BOUND [22]: 18700 cpm
bound *SLPI (pM) [23]: 915 pM
bound per free [23]: 0.047
sites bound per cell (sites per cell) [23]: 55100
specific cpm [23]: 9780 cpm
pKd [24]: 9.00
CPM *SLPI BOUND [25]: 5710 cpm
